We go through six proteins from paper doi:10.1101/330266 (bioRxiv, 2019).

The data set deals with the molecule itself. Nature of the data set: thioflavin T.

In the case of Ac-DNIKHIPGGGSVQIVYK-NH2 [R2R3-V300I peptide fragment], the binding result is reported as “binds”.
Then Ac-DNIKHVLGGGSVQIVYK-NH2 [R2R3-P301L peptide fragment], with “binds”; and Ac-DNIKHVPGGGNVQIVYK-NH2 [R2R3-S305N peptide fragment], with “binds”; and Ac-DNIKHVSGGGSVQIVYK-NH2 [R2R3-P301S peptide fragment], with “binds”.
Then Ac-DNIKHVPGVGSVQIVYK-NH2 [R2R3-G303V peptide fragment], with “binds”; and Ac-VQIVYK-NH2 [306VQIVYK311 hexapeptide], with “binds”.
